In PMC6566107, “Molecular Analysis of Protein-Protein Interactions in the Ethylene Pathway in the Different Ethylene Receptor Subfamilies” (Frontiers in Plant Science, 2019):
Where “and” joins values, the source holds several entries; their conditions need not be identical. Equal values may be shown once.

T1: Arabidopsis thaliana EIN2 C-terminus (AtEIN2 479-1294), soluble cytosolic domain (Arabidopsis thaliana, UniProt Q9S814 479-1294, Alexa Fluor 488 succinimidyl-ester label where used as the labeled partner in MST)
T1 construct: source: recombinant, expressed and purified as previously described (Bisson et al., 2016)
T1 sequence (looked up): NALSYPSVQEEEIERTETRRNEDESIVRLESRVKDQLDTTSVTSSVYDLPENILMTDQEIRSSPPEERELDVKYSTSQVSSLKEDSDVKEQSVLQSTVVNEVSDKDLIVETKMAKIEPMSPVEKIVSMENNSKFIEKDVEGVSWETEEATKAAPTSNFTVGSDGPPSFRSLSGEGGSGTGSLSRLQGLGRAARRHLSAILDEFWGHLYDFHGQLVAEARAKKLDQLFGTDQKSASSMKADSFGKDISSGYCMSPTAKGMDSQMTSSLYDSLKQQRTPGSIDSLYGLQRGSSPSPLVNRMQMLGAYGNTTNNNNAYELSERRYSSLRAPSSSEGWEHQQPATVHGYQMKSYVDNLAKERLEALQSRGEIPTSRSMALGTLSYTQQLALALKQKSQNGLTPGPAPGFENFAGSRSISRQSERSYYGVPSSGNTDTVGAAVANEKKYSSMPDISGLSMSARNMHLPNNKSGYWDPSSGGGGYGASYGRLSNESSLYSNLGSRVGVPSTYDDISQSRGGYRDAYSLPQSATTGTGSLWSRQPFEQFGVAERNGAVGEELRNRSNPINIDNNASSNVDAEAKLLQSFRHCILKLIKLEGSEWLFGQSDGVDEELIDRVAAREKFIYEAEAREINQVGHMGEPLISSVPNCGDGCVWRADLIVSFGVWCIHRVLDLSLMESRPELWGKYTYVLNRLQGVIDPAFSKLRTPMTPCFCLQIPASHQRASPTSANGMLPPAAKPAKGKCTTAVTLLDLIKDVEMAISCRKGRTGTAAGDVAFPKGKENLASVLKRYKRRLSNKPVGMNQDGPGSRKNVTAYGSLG

T2: Isolated transmembrane domain of AtETR1 (aa 1-157) with C4S and C6S (Arabidopsis thaliana, UniProt P49333 1-157, C4S | C6S)
T2 sequence: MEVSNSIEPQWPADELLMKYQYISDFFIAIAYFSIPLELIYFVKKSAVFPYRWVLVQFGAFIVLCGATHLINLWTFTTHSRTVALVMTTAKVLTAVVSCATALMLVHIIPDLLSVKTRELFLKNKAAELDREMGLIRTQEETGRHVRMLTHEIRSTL

T3: Arabidopsis thaliana Raf-like protein kinase CTR1 (AtCTR1), full-length, fused to mCerulean (Arabidopsis thaliana, UniProt Q05609 1-821, Alexa Fluor 488 succinimidyl-ester label)
T3 construct: CONSTITUTIVE TRIPLE RESPONSE 1 (CTR1), Arabidopsis thaliana, UniProt Q05609, full-length cDNA according to NCBI NM_120454.4; The CTR1 coding region was extended by mCerulean in pET30a; source: E. coli BL21 (DE3) with pRARE, purified (Ni-NTA)
T3 sequence (looked up): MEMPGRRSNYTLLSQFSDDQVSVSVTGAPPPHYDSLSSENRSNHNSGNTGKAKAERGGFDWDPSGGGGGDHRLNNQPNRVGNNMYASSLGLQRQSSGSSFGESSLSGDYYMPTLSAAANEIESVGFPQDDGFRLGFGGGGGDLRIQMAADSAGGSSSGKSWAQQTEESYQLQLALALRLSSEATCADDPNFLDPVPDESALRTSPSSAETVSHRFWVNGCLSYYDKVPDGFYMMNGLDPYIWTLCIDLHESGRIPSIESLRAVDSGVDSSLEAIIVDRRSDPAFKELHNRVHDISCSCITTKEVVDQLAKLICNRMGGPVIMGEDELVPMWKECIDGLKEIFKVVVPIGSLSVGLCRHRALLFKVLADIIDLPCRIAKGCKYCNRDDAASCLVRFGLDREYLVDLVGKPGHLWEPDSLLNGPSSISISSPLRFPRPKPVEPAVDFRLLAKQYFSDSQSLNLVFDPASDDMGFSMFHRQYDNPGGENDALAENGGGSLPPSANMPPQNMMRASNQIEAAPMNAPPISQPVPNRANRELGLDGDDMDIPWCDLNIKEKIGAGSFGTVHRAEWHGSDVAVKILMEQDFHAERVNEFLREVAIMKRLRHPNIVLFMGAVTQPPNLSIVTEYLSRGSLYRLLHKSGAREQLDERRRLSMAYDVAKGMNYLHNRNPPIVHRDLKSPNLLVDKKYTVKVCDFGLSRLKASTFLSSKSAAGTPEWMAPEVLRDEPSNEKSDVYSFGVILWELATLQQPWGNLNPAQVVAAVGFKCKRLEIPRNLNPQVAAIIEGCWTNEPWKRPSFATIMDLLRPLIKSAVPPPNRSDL

B1: Arabidopsis thaliana ethylene receptor ETR2 (AtETR2), full-length, type-II subfamily (receptor, UniProt Q0WPQ2 1-773, looked up)
chain: MVKEIASWLLILSMVVFVSPVLAINGGGYPRCNCEDEGNSFWSTENILETQRVSDFLIAVAYFSIPIELLYFVSCSNVPFKWVLFEFIAFIVLCGMTHLLHGWTYSAHPFRLMMAFTVFKMLTALVSCATAITLITLIPLLLKVKVREFMLKKKAHELGREVGLILIKKETGFHVRMLTQEIRKSLDRHTILYTTLVELSKTLGLQNCAVWMPNDGGTEMDLTHELRGRGGYGGCSVSMEDLDVVRIRESDEVNVLSVDSSIARASGGGGDVSEIGAVAAIRMPMLRVSDFNGELSYAILVCVLPGGTPRDWTYQEIEIVKVVADQVTVALDHAAVLEESQLMREKLAEQNRALQMAKRDALRASQARNAFQKTMSEGMRRPMHSILGLLSMIQDEKLSDEQKMIVDTMVKTGNVMSNLVGDSMDVPDGRFGTEMKPFSLHRTIHEAACMARCLCLCNGIRFLVDAEKSLPDNVVGDERRVFQVILHIVGSLVKPRKRQEGSSLMFKVLKERGSLDRSDHRWAAWRSPASSADGDVYIRFEMNVENDDSSSQSFASVSSRDQEVGDVRFSGGYGLGQDLSFGVCKKVVQLIHGNISVVPGSDGSPETMSLLLRFRRRPSISVHGSSESPAPDHHAHPHSNSLLRGLQVLLVDTNDSNRAVTRKLLEKLGCDVTAVSSGFDCLTAIAPGSSSPSTSFQVVVLDLQMAEMDGYEVAMRIRSRSWPLIVATTVSLDEEMWDKCAQIGINGVVRKPVVLRAMESELRRVLLQADQLL
modifications: Alexa Fluor 488 succinimidyl-ester label where used as the labeled partner in MST
notes: ETR2, Arabidopsis thaliana, UniProt Q0WPQ2, full-length, codon optimized cDNA according to NCBI NM_113216.3; The thrombin site of pGEX-4T-1 was changed to a TEV site (ENLYFQG); No cleavage is described; The purified protein runs at an apparent 120 kDa, so GST is probably still attached; The same construct was used with and without the Alexa Fluor 488 label; source: E. coli C43 (DE3), solubilised …

What was measured:
[1] = molecular target: T1, Arabidopsis thaliana EIN2 C-terminus …; test: MST; 20 nM Alexa Fluor 488-labeled AtETR2 (MST buffer 1: 50 mM HEPES/NaOH pH 7.8, 300 mM NaCl, 5% glycerol, 0.015% FosCholine-16); unlabeled AtEIN2 479-1294 (MST buffer 3) titrated 2 µM to 0.98 nM; 20% MST power; 1:1 model; apparent Kd; details: both partners purified
[2] = molecular target: the molecule itself; test: MST; 40 nM Alexa Fluor 488-labeled receptor (AtETR1 or AtETR2); unlabeled AtETR1 or AtETR2 (4 µM to 0.49 nM) or ETR1-TM C4SC6S (16 µM to 0.98 nM) titrated; 0.0075% (w/v) FosCholine-16; 60% MST power; 1:1 model
[3] = molecular target: T2, Isolated transmembrane domain of AtETR1 …; test: MST; ETR2 Alexa488-labeled
[4] = molecular target: T1, Arabidopsis thaliana EIN2 C-terminus …; test: MST; 75 nM Alexa Fluor 488-labeled AtEIN2 479-1294; unlabeled AtETR2 titrated 4 µM to 1.95 nM; ambient temperature; 60% MST power; 1:1 model; apparent Kd; details: both partners purified
[5] = molecular target: T3, Arabidopsis thaliana Raf-like protein …; test: MST; Alexa Fluor 488-labeled AtCTR1 (MST buffer 3; 50 nM with AtETR1, 20 nM with AtETR2); unlabeled receptors (MST buffer 2) titrated 4 µM to 0.98 nM; 60% MST power; premium capillaries and 10 min incubation for AtETR2; 1:1 model; details: both partners purified
[6] = molecular target: B1; test: MST; 40 nM Alexa Fluor 488-labeled receptor (AtETR1 or AtETR2); unlabeled AtETR1 or AtETR2 (4 µM to 0.49 nM) or ETR1-TM C4SC6S (16 µM to 0.98 nM) titrated; 0.0075% (w/v) FosCholine-16; 60% MST power; 1:1 model; details: both partners purified
[7] = molecular target: T2, Isolated transmembrane domain of AtETR1 …; test: MST; ETR1 Alexa488-labeled

Kd [1] [nM]	Kd [3] [nM]	Kd [4] [nM]	Kd [5] [nM]	Kd [6]	Kd [7] [nM]	Binder	Kd [2] [nM]
161	145	147	165	–	–	B1	96
–	–	–	169	177 nM and 217 nM	491	Arabidopsis thaliana ethylene receptor ETR1 (AtETR1), full-length, type-I subfamily (receptor, UniProt P49333 1-738, looked up, Alexa Fluor 488 succinimidyl-ester label where used as the labeled partner in MST, ETR1, Arabidopsis thaliana, full-length receptor; source: recombinant, expressed and purified as described in Milić et al., 2018, in FosCholine-16) MEVCNCIEPQWPADELLMKYQYISDFFIAIAYFSIPLELIYFVKKSAVFPYRWVLVQFGAFIVLCGATHLINLWTFTTHSRTVALVMTTAKVLTAVVSCATALMLVHIIPDLLSVKTRELFLKNKAAELDREMGLIRTQEETGRHVRMLTHEIRSTLDRHTILKTTLVELGRTLALEECALWMPTRTGLELQLSYTLRHQHPVEYTVPIQLPVINQVFGTSRAVKISPNSPVARLRPVSGKYMLGEVVAVRVPLLHLSNFQINDWPELSTKRYALMVLMLPSDSARQWHVHELELVEVVADQVAVALSHAAILEESMRARDLLMEQNVALDLARREAETAIRARNDFLAVMNHEMRTPMHAIIALSSLLQETELTPEQRLMVETILKSSNLLATLMNDVLDLSRLEDGSLQLELGTFNLHTLFREVLNLIKPIAVVKKLPITLNLAPDLPEFVVGDEKRLMQIILNIVGNAVKFSKQGSISVTALVTKSDTRAADFFVVPTGSHFYLRVKVKDSGAGINPQDIPKIFTKFAQTQSLATRSSGGSGLGLAISKRFVNLMEGNIWIESDGLGKGCTAIFDVKLGISERSNESKQSGIPKVPAIPRHSNFTGLKVLVMDENGVSRMVTKGLLVHLGCEVTTVSSNEECLRVVSHEHKVVFMDVCMPGVENYQIALRIHEKFTKQRHQRPLLVALSGNTDKSTKEKCMSFGLDGVLLKPVSLDNIRDVLSDLLEPRVLYEGM	326
